Data: paper PMC7369975, “Scalable High-Performance Production of Recombinant Horseradish Peroxidase from E. coli Inclusion Bodies” (International Journal of Molecular Sciences, 2020)
One block for each molecule: values may come before it.

Columns and labels:
Format in all cases: biochemical, Armoracia rusticana
[1] = system: T1, pHRP (commercial plant HRP Type VI-A); test: absorbance at […] nm, initial rate, 96-well plate; details: 1 mM H2O2 (saturating), 50 mM phosphate-citrate, pH 5, 30 °C; ABTS 0.1-7 mM
T1 construct: gene PRXC1A; native glycosylated enzyme from horseradish root, commercial preparation, variable isoenzyme mixture, 44 kDa

[2] = system: T1, pHRP (commercial plant HRP Type VI-A); test: absorbance at […] nm, initial rate, 96-well plate; details: 1 mM H2O2 (saturating), 50 mM phosphate-citrate, pH 5; TMB 0.02-0.55 mM
purified protein = substrate: Cc1cc(-c2cc(C)c(N)c(C)c2)cc(C)c1N; test: purified protein; details: 1 mM H2O2 (saturating), 50 mM phosphate-citrate, pH 5, TMB 0.02-0.55 mM

Km [1]: 700 ± 140 µM
Molecule: CCn1c(=NN=c2sc3cc(S(=O)(=O)O)ccc3n2CC)sc2cc(S(=O)(=O)O)ccc21 [ABTS, 2,2′-azino-bis (3-ethylbenzothiazoline-6-sulphonic acid)]

Molecule: Cc1cc(-c2cc(C)c(N)c(C)c2)cc(C)c1N [TMB, 3,3′,5,5′-tetramethylbenzidine]
Km [2]: 101 ± 20 µM

B1: rHRP (refolded recombinant HRP, variant C1A) (Armoracia rusticana) (protein)
chain: QLTPTFYDNSCPNVSNIVRDTIVNELRSDPRIAASILRLHFHDCFVNGCDASILLDNTTSFRTEKDAFGNANSARGFPVIDRMKAAVESACPRTVSCADLLTIAAQQSVTLAGGPSWRVPLGRRDSLQAFLDLANANLPAPFFTLPQLKDSFRNVGLNRSSDLVALSGGHTFGKNQCRFIMDRLYNFSNTGLPDPTLNTTYLQTLRGLCPLNGNLSALVDFDLRTPTIFDNKYYVNLEEQKGLIQSDQELFSSPNATDTIPLVRSFANSTQTFFNAFVEAMDRMGNITPLTGTQGQIRLNCRVVNSNS
Km (purified protein): 0.105 ± 0.014 mM | Vmax (purified protein): 7150 µmol/min/mg | kcat (purified protein): 4170 ± 207 s⁻¹ | kcat/Km (purified protein): 3.96e+07 ± 5.66e+06 M⁻¹ s⁻¹
